{"source": "the DeepSol protein solubility set"}
{"assay": "soluble on expression in E. coli; label from the status in PepcDB or PDB records"}
{"sequence": "MSLAVNNIIKRIRNIMRQDAGINGDAQRIEQMTWMIFLKVYDTQEETWEYKASRESKTYQSIIPKDLRWRNWAVDEKDGEALTGEALLSFVNEKLFPALKNLPVDANTPRAKSIVQETFADLNQYMKNGTLLRQVVNIVNEIEFDDADDRHTFGDIYEGILKDLQSAGNAGEFYTPRALTDFIVMMLDPKLGETFGDFTSGTGGFLTSALNYMGKSVRSAEDGEKLQNAVVGQEWKPLPYLLSITNLLLHDIEAPNIANCDSLGTNVTDFKETDKVDVIGMNPPYGGSTEDSVKNNFPLRYRSSETADLFIALIMYRLKAGGRCGVIIPDGFLFGTDGAKLALKENLLRKFNLHTIIRLPGSIFSPYTSIATNILFFNNEEAEGCEEGFKTKETWFYRLDMPEGYKHFSKNKPMKVEHTLPIQEWWNDRKEIVSSETGEKSRVFTAQQLLDLNCNFDQCKFPKEEEEILPPAEGHHHHHH", "soluble on expression in E. coli": "soluble"}
{"sequence": "MSLCGIAGTLNSSCFSSKKLLAALAHRGPSGHGEFSHQGVNLFHARLSIQDLSPAGAQPMHRHHLSIVFNGEIYNHLELRAKVADYPFSTRSDTETILALFERFGERSLEWMDGMFALAILDQRTHKLFLARDRMGKKPLFYYQEGEEFLFASELNALLTLKPLQIDHAKLSAFLRCGFFPHDGAPYQGVQSLPQGSYAFIDLHHPRPLSPQRYFDLLSLYQAPKIEGFEASKEAVELALKESVKNRLESSDLEVGSFLSGGIDSSLITALASFFTPKLKTFTVAFEGAYDESSLAELVAKRYKTDHTTLHLNPSKLKEEVKGILACYGRPFMDSSAIPSYYVSQEAKKHLTVILNGDGADELFGGYRRYVPMSHGWLKLARPLSLLLPLLPLPKEKKSLYNYLHRLLAMSRKRGLDFYLSATIDSFEDAYAFSPNPHTQTLDQEITQILEDSSLSSLSKMLYLDSQNLLLSDLLPKMDIATMAHSLEGRSPFLGKSLLEVAPRIKDEYKIFGKSTKFILRELAKKYLPHALLEQPKRGFEVPLRAWVEGELKELIFDSLSKNCLSRELIESRFVDALLDKPQDFAPEKRAKMLWSLFSLEVWHEHYQKACEEGHHHHHH", "soluble on expression in E. coli": "soluble"}
{"sequence": "MSLDAITVDLNYDKNNVAVITPVWSQEWSVANVLGGWVCRSNRNENEGACEETHLVWWYAFGAYSKIRLRFREQISHAEITLILLGSVRDACYTGVINMNAAACQWGRSLKLRIPSEELAKIPTSGTWKATLVLDYLQWGGDDPLGTSTTDITLNVTDHFAENAAIYFPQFGTATPRVDLNLHRMNASQMSGRANLDMCLYDGGVKARSLQMKIEGSNKSGTGFQVIKSDSADTIDYAVSMNYGGRSIPVTRGVEFSLDNVDKAATRPVVLPGQRQAVRCVPVPLTLTTQPFNIREKRSGEYQGTLTVTMLMGTQTPEGHHHHHH", "soluble on expression in E. coli": "not soluble"}
{"sequence": "MSLDAVKMVKGKVAEIMQNDRLGGLDVLEAEFSKTWEFKNHNVAVYSIQGRRDHMEDRFEVLTDLANKTHPSIFGIFDGHGGETAAEYVKSRLPEALKQHLQDYEKDKENSVLSYQTILEQQILSIDREMLEKLTVSYDEAGTTCLIALLSDKDLTVANVGDSRGVLCDKDGNAIPLSHDHKPYQLKERKRIKRAGGFISFNGSWRVQGILAMSRSLGDYPLKNLNVVIPDPDILTFDLDKLQPEFMILASDGLWDAFSNEEAVRFIKERLDEPHFGAKSIVLQSFYRGCPDNITVMVVKFRNSSKTEEQEGHHHHHH", "soluble on expression in E. coli": "soluble"}
{"sequence": "MSLDENKPVLVLGATGKQGGSAARYLLERGWTVRAFVRDPGAPKAKELRELGASLHTGDLEDAGSVRAAMKGAYGVFSIQTPMTPAGVEGEERQGKICADAARDLGVQHYVHSSVGGAERPEGVNWRLSKLAIEQRIQENALRFTFLRPSYFMENLNHDMSPLVMEDGVLTFRRGLGPANTLQMISGPDIGYFAADAFDDPDTFGGAKIELAGDELTGEQIAAAFGRHTGLPARFVSVPIPELHRTGFEWQAISYTWLNGIGYHADIPTLRARFPQLLTLDQWLARTGWTPRDPAEGHHHHHH", "soluble on expression in E. coli": "soluble"}
{"sequence": "MSLDGQEAAGILERARASVDPELRRAVDSLPGSMRRIALHHFGWEHADGTPAAGNAGKAIRPALVLAAVRALGGPQSSAVRAAAAVELIHNFTLLHDDVMDRDTTRRHRPTAWTVFGDADAILAGDALQALAHRLLAEDPHPASAAAAARLAACVIELCAGQHADTAMERRGPGEVTLDECLAMAEAKTGALLGCACALGALYAGAEEEDVEALDAFGREAGLAFQLIDDVIGIWGDPSRTGKPAGADLMARKKSLPVVAALAAGTPAAAELAELYAVPHQEGELERTVLAVERAGGRDWAQQQAADRMARAMHELSRAIPDPEAAGGLLALAEFVTRRSNEGHHHHHH", "soluble on expression in E. coli": "soluble"}
{"sequence": "MSLDGTVLLIDYFEYEREKTKIIFDNIGEYDFIEVENLKKFYSIFKDLDSITLIIMDIAFPVEKEGLEVLSAIRNNSRTANTPVIIATKSDNPGYRHAALKFKVSDYILKPYPTKRLENSVRSVLKICQRFRYEFDSAHVISMSIEDYISKEFKVASRAGQSLSVILMAPVGLEKEPSEQSTQISSELQDQIQNLAIEKVKLSLRSTDTAILNANRDILVILPFTNAAGAQKVLQKIQDNVREGLKSLNINYDDYYYAVSVTFPNDGKTFQSLMEKAVKKVEDKIMLEKITSIGVNILDNARNSYKKFNKEGHHHHHH", "soluble on expression in E. coli": "soluble"}
{"sequence": "MSLDHFQIDHIAIAVPSLNTSLPLFEQALQATASHEERLPHHHINAVFINGRGVGYELIEPHPSNVSMQRFLAKQNNRPAFHHIAFSVANIETAIGMLKEKHVRLTSELPLIGSFGRKVAFIHPSSTGGLLVELCEGKTEGHHHHHH", "soluble on expression in E. coli": "soluble"}
{"sequence": "MSLDIADVAKRTGVPASTLRYYEKKGLLKSLAGRGQRRQFAADVADRLALIALGQAAGFSLDEVGAMLVDLQVDRQMLMAKADELDARIKRLQAMSKGLRHAAQCPEKDHLACPKFQQLMKLSAAGALGEKQARTKAFVTDEGHHHHHH", "soluble on expression in E. coli": "soluble"}
{"sequence": "MSLDKDTVYAVVDIETTGTSVTDGDRIIQIGCVFVQHNQVINHFETDVNPLKEIPAAISRLTGITNKRVRHAPLFDDVAGTLYSLLTNTVFVAHNVNFDLPFINAELERVGYPALPIAAVDTVSLSQILLPTATSFRLRDLSRLFNIEHDNPHSADSDASATAELFIFLFRRLRALPMVTLQRMIDLQADLPLQTTTLFRVAQQLNEEGHHHHHH", "soluble on expression in E. coli": "not soluble"}
{"sequence": "MSLDKMKAITFFDLDGTLLDGTSQITPEITAAVAALKDNQILPLIATGRTLCEIQPIMKASGIDSAIVMNGQFIHYEGKTIYSDEFTTEECVSLHEHVKQRGHELAFYNERRIFCTGHTGTVKQAYDYIHSAVPEIDPTGYENDAVNMMLVLSQHGDDDEYYYERFPELTFYRNGPFSIDIVRKGVSKGSGVKNLFNTLGLNGIPTYAFGDGINDLALFEACDYGIAMGNAREELKEKATFISTKNTENGIVNGLKKFDLLEGHHHHHH", "soluble on expression in E. coli": "soluble"}
{"sequence": "MSLDLFIPEVAYINPQALKHPLGNEAYQYLKSMGVPIIESNRVSIDTDSPVKNYVKAKKTILLTVSKQKKLQQCKPSADYQFALSSSCPGHCEYCYLQTTQGEKPYMRLFVNIEEILENIQEYMDGNKPNITTFEAASITDPVGLDHITRALEKCITYFGESSHGRLRLVTKFDHVDPYLKLPHNGHTTFRFTINTQWVIKNFEHHTSSAHERVEGAKKIAHANYPLGFIIAPIMLYDHWEKDYKDLLEELSLALKDYEKPIGFEMIQHRFTSKAKDLILQRFPNTKLNLDEESRKLKWGPYGQFKYVYPTEKSDYMRDYLTGLIKDLFPNGRIEYFTEGHHHHHH", "soluble on expression in E. coli": "not soluble"}
{"sequence": "MSLDLPYLSPTPFIKPVPSFKKYSMGFYPIVDSSHWLEMLLPLGIKCIQLRIKEASQERLEEEIKRSVHLANQYNAALFINDHWELAIHYGAAGVHLGQEDLEKADVDRINRSGLFLGISTHCYYEVARAHALNPSYVACGPIYETTSKIMPFQAQGIARLERWRKTLRYPLVAIGGITLKNLSDVLKTKIDGVSVISAITKASAPLVAAKQFLTQMNESHNEGHHHHHH", "soluble on expression in E. coli": "not soluble"}
{"sequence": "MSLDLRLEELAILGVKLPHDFSPEVQGPLFSSQGLNNISDIAHLSNNENLSYLMTATIENNKVKLDHFVQFLPMIMKFGNSEQRFQLQPKKDTNAPKPTTNKSRGYAKPKRGFGFVDLDDAPSSQPEPSDAEITRNNFDLEQTYWSKNFVNITRVGSRTILEPAIGASLTTYNSGQCYILRLPRKLLISTNTEWPDFISRKIELDGKPLPIPSDNLTEISSREDIISCSYVNDKIDSNWGAVVSLSKSSSENLKVVGIEKQSMVLRESTPMNEGHHHHHH", "soluble on expression in E. coli": "soluble"}
{"sequence": "MSLDNGEAAIIIGEFYKRNDQWKFRALSEGSAYGLSAFGRKIGLEVDDRHPRRPSGGSGGPAGGPRHESATGTAFVVGPAHVMTCAHVIEDMGVFYINSLEGRYKAEAVVIDRRNDIALLRVQGAPPLSAVTFREGQGCEPGDTVAVLGYPLASISGGGLQVTQGGISGLFGLHNDASLFQFTAPIQPGSSGSPLFDNGGAVIGMVTSTVPDGQNMNFAVKSALLMSFLQACRIDEGHHHHHH", "soluble on expression in E. coli": "not soluble"}
{"sequence": "MSLDNQLRPTLHYQAQNPHRRVLVTGATGYIGGRLITELLAAGFQVRATSRKKTSLQRFDWYEDVEAVEADLTDATELDTLFKDVDVVYYLVHSMGGKNVDFEEQEQRTAENVIQAADQAGIKQIVYLSGLHPRNRKIEELSKHMRSREKVAQILLAGQTPALILRAATIIGSGSASFEIIRHLTERLPRMIAPQWITNQIEPLAIRDVLHYLISAADLKDPVNRSCDIGCGKSYEFADLLRIYADVRGLKRHVNSVPLNLPMDKLSGLWISLVTPVPFQLSFPLAQSMAEDAVTEEHSIKDIISDPPDGFIEYREAVELALAAEFDRGVPTSWDRSWTVQQPWAGQPTDPEWAGKAVYEDVRTEDTDLRAAQVWPIIEGLGGVNGWYSAPLLWRLRGIADRLIGGPGLGGRRDPRHLKLGDRIDWWRVTEIDPPHRLVLTAEMKVDGGAWLILEVADKENGGCTYTQRAIFEPKGEGHHHHHH", "soluble on expression in E. coli": "soluble"}
{"sequence": "MSLDQTVSNNFKMIYIASCGEGINAFHLVESTLVQFPDSDITVVKVPHIRTESQVDHLLDRVKDVESLIAHTIVEPNLRQYLVTKAEEHKIVTIDLMGQVLNKIETFLSIRPLGKPGLYRETHQVDLKQVTAIDFALAHDDGLRPESLDEAEIILVGLSRAGKTPLSMYMGVMGWKVANIPYVPGVPMPQTLDEVDRRRVIALNINIEQLLSHRKMRQESLGTSDMHAYSRRQEVEVEVQTAQKYYITKGFSMIDVSNKPIETSAEEIAEMITRRFKAQAHLKDEGHHHHHH", "soluble on expression in E. coli": "soluble"}
{"sequence": "MSLDRPRCCLRGKECCINRFQQVESRWGYSGTSDRIRFTVNRRISIVGFGLYGSIHGPTDYQVNMQIIEYEKKQTLGQNDTGFSCDGTANTFRVMFKEPIEILPNVCYTACATLKGPDSHYGTKGLKKVVHETPAASKTVFFFFSSPGNNNGTSIEDGQIPEIIFYTEGHHHHHH", "soluble on expression in E. coli": "soluble"}
{"sequence": "MSLDSKLIFFDIDGTIYDHDKNIPESTRKTVAELQRQGHHVFIASGRSPFLVKPILEELGIHSFISYNGQFVVFENQVIYKNPLPENAIRRLLKQADEGKHPVVFMAEDTMKATVADHPHVLEGIGSLKTDYPETDDLFYEGKEIFQLLLFCQDEEEKAYAAFPEFDLVRWHELSTDVLPHGGSKAEGIKKVIERLPFDIGDTYAFGDGLNDLQMIEYVGTGVAMGNAVPELKEIADFVTKPVDEDGIAYAVKELGLLKEGHHHHHH", "soluble on expression in E. coli": "soluble"}
{"sequence": "MSLDSNSQSRSSSASSIGSESETGNAVVVFGYREAITKQILAYFAQFGEILEDLESELGDTETMRTPGYFFQQAPNRRRISREHGRTWTKLTYANHSSYLRALREHGTIYCGAAIGCVPYKHELISELSRDTYNSMNDVKQTNSISTNQLTQHNQSEVPKSNQTFETKPTNETERNQIKTPSAFGSDNKGNGSISSGRTKRRLSIKDGSSLFLSGTDNIFSTLDGQPTKKRMINRDRSLIGKISGWLFGWNDLEGHHHHHH", "soluble on expression in E. coli": "soluble"}
